Measurements: doi:10.1101/2021.02.19.432005 (bioRxiv, 2021)
Read-outs that look alike come from different tables or passages of the source.

T1: Notch1^EGF33-NRR (mouse, UniProt Q01705 1267-1717)
T1 sequence: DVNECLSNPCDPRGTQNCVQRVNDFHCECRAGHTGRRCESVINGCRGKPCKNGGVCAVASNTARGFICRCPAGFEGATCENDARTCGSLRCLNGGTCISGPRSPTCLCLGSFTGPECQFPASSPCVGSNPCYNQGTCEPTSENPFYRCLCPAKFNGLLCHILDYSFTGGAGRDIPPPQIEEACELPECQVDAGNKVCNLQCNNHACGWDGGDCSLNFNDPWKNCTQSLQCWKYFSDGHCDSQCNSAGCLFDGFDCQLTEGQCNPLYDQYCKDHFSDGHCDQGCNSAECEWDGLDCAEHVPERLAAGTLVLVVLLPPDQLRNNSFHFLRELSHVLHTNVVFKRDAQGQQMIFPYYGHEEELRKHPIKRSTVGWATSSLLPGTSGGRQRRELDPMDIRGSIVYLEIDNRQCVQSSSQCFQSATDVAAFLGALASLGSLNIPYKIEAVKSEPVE

B1: Jagged1^EGF8-11,Fc (Fc-tagged, covalently dimerized) (Fc fusion)
chain: DIDECASNPCLNGGHCQNEINRFQCLCPTGFSGNLCQLDIDYCEPNPCQNGAQCYNRASDYFCKCPEDYEGKNCSHLKDHCRTTTCEVIDSCTVAMASNDTPEGVRYISSNVCGPHGKCKSQSGGKFTCDCNKGFTGTYCHENINDCESNPCKNGGTCIDGVNSYKCICSDGWEGAHCE
B2: Notch1 negative regulatory region (Notch1^NRR) (domain or fragment)
chain: EEACELPECQVDAGNKVCNLQCNNHACGWDGGDCSLNFNDPWKNCTQSLQCWKYFSDGHCDSQCNSAGCLFDGFDCQLTEGQCNPLYDQYCKDHFSDGHCDQGCNSAECEWDGLDCAEHVPERLAAGTLVLVVLLPPDQLRNNSFHFLRELSHVLHTNVVFKRDAQGQQMIFPYYGHEEELRKHPIKRSTVGWATSSLLPGTSGGRQRRELDPMDIRGSIVYLEIDNRQCVQSSSQCFQSATDVAAFLGALASLGSLNIPYKIEAVKSEPVE
B3: Notch1 full ectodomain (Notch1^fe), mouse (domain or fragment)
chain: ARGLRCSQPSGTCLNGGRCEVANGTEACVCSGAFVGQRCQDSNPCLSTPCKNAGTCHVVDHGGTVDYACSCPLGFSGPLCLTPLDNACLANPCRNGGTCDLLTLTEYKCRCPPGWSGKSCQQADPCASNPCANGGQCLPFESSYICRCPPGFHGPTCRQDVNECSQNPGLCRHGGTCHNEIGSYRCACRATHTGPHCELPYVPCSPSPCQNGGTCRPTGDTTHECACLPGFAGQNCEENVDDCPGNNCKNGGACVDGVNTYNCRCPPEWTGQYCTEDVDECQLMPNACQNGGTCHNTHGGYNCVCVNGWTGEDCSENIDDCASAACFQGATCHDRVASFYCECPHGRTGLLCHLNDACISNPCNEGSNCDTNPVNGKAICTCPSGYTGPACSQDVDECALGANPCEHAGKCLNTLGSFECQCLQGYTGPRCEIDVNECISNPCQNDATCLDQIGEFQCICMPGYEGVYCEINTDECASSPCLHNGHCMDKINEFQCQCPKGFNGHLCQYDVDECASTPCKNGAKCLDGPNTYTCVCTEGYTGTHCEVDIDECDPDPCHYGSCKDGVATFTCLCQPGYTGHHCETNINECHSQPCRHGGTCQDRDNSYLCLCLKGTTGPNCEINLDDCASNPCDSGTCLDKIDGYECACEPGYTGSMCNVNIDECAGSPCHNGGTCEDGIAGFTCRCPEGYHDPTCLSEVNECNSNPCIHGACRDGLNGYKCDCAPGWSGTNCDINNNECESNPCVNGGTCKDMTSGYVCTCREGFSGPNCQTNINECASNPCLNQGTCIDDVAGYKCNCPLPYTGATCEVVLAPCATSPCKNSGVCKESEDYESFSCVCPTGWQGQTCEVDINECVKSPCRHGASCQNTNGSYRCLCQAGYTGRNCESDIDDCRPNPCHNGGSCTDGINTAFCDCLPGFQGAFCEEDINECASNPCQNGANCTDCVDSYTCTCPVGFNGIHCENNTPDCTESSCFNGGTCVDGINSFTCLCPPGFTGSYCQYDVNECDSRPCLHGGTCQDSYGTYKCTCPQGYTGLNCQNLVRWCDSAPCKNGGRCWQTNTQYHCECRSGWTGVNCDVLSVSCEVAAQKRGIDVTLLCQHGGLCVDEGDKHYCHCQAGYTGSYCEDEVDECSPNPCQNGATCTDYLGGFSCKCVAGYHGSNCSEEINECLSQPCQNGGTCIDLTNSYKCSCPRGTQGVHCEINVDDCHPPLDPASRSPKCFNNGTCVDQVGGYTCTCPPGFVGERCEGDVNECLSNPCDPRGTQNCVQRVNDFHCECRAGHTGRRCESVINGCRGKPCKNGGVCAVASNTARGFICRCPAGFEGATCENDARTCGSLRCLNGGTCISGPRSPTCLCLGSFTGPECQFPASSPCVGSNPCYNQGTCEPTSENPFYRCLCPAKFNGLLCHILDYSFTGGAGRDIPPPQIEEACELPECQVDAGNKVCNLQCNNHACGWDGGDCSLNFNDPWKNCTQSLQCWKYFSDGHCDSQCNSAGCLFDGFDCQLTEGQCNPLYDQYCKDHFSDGHCDQGCNSAECEWDGLDCAEHVPERLAAGTLVLVVLLPPDQLRNNSFHFLRELSHVLHTNVVFKRDAQGQQMIFPYYGHEEELRKHPIKRSTVGWATSSLLPGTSGGRQRRELDPMDIRGSIVYLEIDNRQCVQSSSQCFQSATDVAAFLGALASLGSLNIPYKIEAVKSEPVE
B4: Jagged1 full ectodomain, wild type (Jagged1^fe,wt) (domain or fragment)
chain: ASGQFELEILSMQNVNGELQNGNCCGGVRNPGDRKCTRDECDTYFKVCLKEYQSRVTAGGPCSFGSGSTPVIGGNTFNLKASRGNDRNRIVLPFSFAWPRSYTLLVEAWDSSNDTIQPDSIIEKASHSGMINPSRQWQTLKQNTGIAHFEYQIRVTCDDHYYGFGCNKFCRPRDDFFGHYACDQNGNKTCMEGWMGPDCNKAICRQGCSPKHGSCKLPGDCRCQYGWQGLYCDKCIPHPGCVHGTCNEPWQCLCETNWGGQLCDKDLNYCGTHQPCLNRGTCSNTGPDKYQCSCPEGYSGPNCEIAEHACLSDPCHNRGSCKETSSGFECECSPGWTGPTCSTNIDDCSPNNCSHGGTCQDLVNGFKCVCPPQWTGKTCQLDANECEAKPCVNARSCKNLIASYYCDCLPGWMGQNCDININDCLGQCQNDASCRDLVNGYRCICPPGYAGDHCERDIDECASNPCLNGGHCQNEINRFQCLCPTGFSGNLCQLDIDYCEPNPCQNGAQCYNRASDYFCKCPEDYEGKNCSHLKDHCRTTTCEVIDSCTVAMASNDTPEGVRYISSNVCGPHGKCKSQSGGKFTCDCNKGFTGTYCHENINDCESNPCKNGGTCIDGVNSYKCICSDGWEGAHCENNINDCSQNPCHYGGTCRDLVNDFYCDCKNGWKGKTCHSRDSQCDEATCNNGGTCYDEVDTFKCMCPGGWEGTTCNIARNSSCLPNPCHNGGTCVVNGDSFTCVCKEGWEGPICTQNTNDCSPHPCYNSGTCVDGDNWYRCECAPGFAGPDCRININECQSSPCAFGATCVDEINGYQCICPPGHSGAKCHEVSGRSCITMGRVILDGAKWDDDCNTCQCLNGRVACSKVWCGPRPCRLHKSHNECPSGQSCIPVLDDQCFVRPCTGVGECRSSSLQPVKTKCTSDSYYQDNCANITFTFNKEMMSPGLTTEHICSELRNLNILKNVSAEYSIYIACEPSLSANNEIHVAISAEDIRDDGNPVKEITDKIIDLVSKRDGNSSLIAAVAEVRVQRRPLKNRTD
B5: Jagged1^CRD,Fc (Fc-tagged, covalently dimerized) (Fc fusion)
chain: EVSGRSCITMGRVILDGAKWDDDCNTCQCLNGRVACSKVWCGPRPCRLHKSHNECPSGQSCIPVLDDQCFVRPCTGVGECRSSSLQPVKTKCTSDSYYQDNCANITFTFNKEMMSPGLTTEHICSELRNLNILKNVSAEYSIYIACEPSLSANNEIHVAISAEDIRDDGNPVKEITDKIIDLVSKRDGNSSLIAAVAEVRVQRRPLKNRTD
B6: Notch1^NRRΔloop (domain or fragment)
chain: EEACELPECQVDAGNKVCNLQCNNHACGWDGGDCSLNFNDPWKNCTQSLQCWKYFSDGHCDSQCNSAGCLFDGFDCQLTEGQCNPLYDQYCKDHFSDGHCDQGCNSAECEWDGLDCAEHVPERLAAGTLVLVVLLPPDQLRNNSFHFLRELSHVLHTNVVFKRDAQGQQMIFPYYGDIRGSIVYLEIDNRQCVQSSSQCFQSATDVAAFLGALASLGSLNIPYKIEAVKSEPVE
B7: Jagged1^C2-EGF3,wt, C-terminally biotinylated SPR ligand (domain or fragment)
chain: ASGQFELEILSMQNVNGELQNGNCCGGVRNPGDRKCTRDECDTYFKVCLKEYQSRVTAGGPCSFGSGSTPVIGGNTFNLKASRGNDRNRIVLPFSFAWPRSYTLLVEAWDSSNDTIQPDSIIEKASHSGMINPSRQWQTLKQNTGIAHFEYQIRVTCDDHYYGFGCNKFCRPRDDFFGHYACDQNGNKTCMEGWMGPDCNKAICRQGCSPKHGSCKLPGDCRCQYGWQGLYCDKCIPHPGCVHGTCNEPWQCLCETNWGGQLCDKDLNYCGTHQPCLNRGTCSNTGPDKYQCSCPEGYSGPNCE
modifications: biotin on the C-terminal biotin acceptor peptide
B8: Notch1^EGF8-13, C-terminally biotinylated SPR ligand (domain or fragment)
chain: EDVDECQLMPNACQNGGTCHNTHGGYNCVCVNGWTGEDCSENIDDCASAACFQGATCHDRVASFYCECPHGRTGLLCHLNDACISNPCNEGSNCDTNPVNGKAICTCPSGYTGPACSQDVDECALGANPCEHAGKCLNTLGSFECQCLQGYTGPRCEIDVNECISNPCQNDATCLDQIGEFQCICMPGYEGVYCEINTDECASSPCLHNGHCMDKINEFQCQCPKGFNGHLCQ
modifications: biotin on the C-terminal biotin acceptor peptide

Experiments:
[1] = target: Jagged1^C2-EGF3,HA (mouse) (UniProt Q9QXX0); assay: MST
[2] = target: Notch1^EGF33-NRR, C-terminally biotinylated SPR ligand (mouse) (UniProt Q01705); assay: SPR
[3] = target: B7; assay: SPR
[4] = target: the molecule itself; assay: SEC-MALS
[5] = target: the molecule itself; assay: cross-linking
[6] = target: B3; assay: cross-linking
[7] = target: B7; assay: SPR; remark: listed apart in the source
[8] = target: T1, Notch1^EGF33-NRR; assay: SPR

Notch1^EGF33-NRR (from UniProt Q01705 1267-1717) (domain or fragment)
Kd [1]: 500 nM

B1
Kd [2]: 290 nM | Kd [3]: 340 nM

B2
stoichiometry N [4]: 2

B3
binding result [5]: binds

B4
binding result [6]: binds

B5
Kd [2]: 290 nM | Kd [3]: 930 nM

B6
Kd [7]: ~1000 nM

B7
binding result [8]: binds

B8
Kd [8]: 115000 nM
